Test results published in publication PMC4912689, “The Extracellular Surface of the GLP-1 Receptor Is a Molecular Trigger for Biased Agonism” (Cell, 2016).

Target: exendin-4, P26349
Test: radioligand inhibition binding (competition with 125I-exendin-4(9-39))
Details: chain shown with the change;; read off a plot

Row | Binder | log10 ratio
1 | glucagon-like peptide 1 receptor (GLP-1R), wild-type, P43220 Y289A (protein) RPQGATVSLWETVQKWREYRRQCQRSLTEDPPPATDLFCNRTFDEYACWPDGEPGSFVNVSCPWYLPWASSVPQGHVYRFCTAEGLWLQKDNSSLPWRDLSECEESKRGERSSPEEQLLFLYIIYTVGYALSFSALVIASAILLGFRHLHCTRNYIHLNLFASFILRALSVFIKDAALKWMYSTAAQQHQWDGLLSYQDSLSCRLVFLLMQYCVAANYYWLLVEGVYLYTLLAFSVLSEQWIFRLYVSIGWGVPLLFVVPWGIVKALYEDEGCWTRNSNMNYWLIIRLPILFAIGVNFLIFVRVICIVVSKLKANLMCKTDIKCRLAKSTLTLIPLLGTHEVIFAFVMDEHARGTLRFIKLFTELSFTSFQGLMVAILYCFVNNEVQLEFRKSWERWRLEHLHIQRDSSMKPLKCPTSSLSSGATAGSSMYTATCQASCS | 0 ΔpKi
2 | glucagon-like peptide 1 receptor (GLP-1R), wild-type, P43220 L379A (protein) RPQGATVSLWETVQKWREYRRQCQRSLTEDPPPATDLFCNRTFDEYACWPDGEPGSFVNVSCPWYLPWASSVPQGHVYRFCTAEGLWLQKDNSSLPWRDLSECEESKRGERSSPEEQLLFLYIIYTVGYALSFSALVIASAILLGFRHLHCTRNYIHLNLFASFILRALSVFIKDAALKWMYSTAAQQHQWDGLLSYQDSLSCRLVFLLMQYCVAANYYWLLVEGVYLYTLLAFSVLSEQWIFRLYVSIGWGVPLLFVVPWGIVKYLYEDEGCWTRNSNMNYWLIIRLPILFAIGVNFLIFVRVICIVVSKLKANLMCKTDIKCRLAKSTLTLIPLLGTHEVIFAFVMDEHARGTARFIKLFTELSFTSFQGLMVAILYCFVNNEVQLEFRKSWERWRLEHLHIQRDSSMKPLKCPTSSLSSGATAGSSMYTATCQASCS | -0.95 ΔpKi
3 | glucagon-like peptide 1 receptor (GLP-1R), wild-type, P43220 L384A (protein) RPQGATVSLWETVQKWREYRRQCQRSLTEDPPPATDLFCNRTFDEYACWPDGEPGSFVNVSCPWYLPWASSVPQGHVYRFCTAEGLWLQKDNSSLPWRDLSECEESKRGERSSPEEQLLFLYIIYTVGYALSFSALVIASAILLGFRHLHCTRNYIHLNLFASFILRALSVFIKDAALKWMYSTAAQQHQWDGLLSYQDSLSCRLVFLLMQYCVAANYYWLLVEGVYLYTLLAFSVLSEQWIFRLYVSIGWGVPLLFVVPWGIVKYLYEDEGCWTRNSNMNYWLIIRLPILFAIGVNFLIFVRVICIVVSKLKANLMCKTDIKCRLAKSTLTLIPLLGTHEVIFAFVMDEHARGTLRFIKAFTELSFTSFQGLMVAILYCFVNNEVQLEFRKSWERWRLEHLHIQRDSSMKPLKCPTSSLSSGATAGSSMYTATCQASCS | -1.2 ΔpKi
4 | glucagon-like peptide 1 receptor (GLP-1R), wild-type, P43220 E373A (protein) RPQGATVSLWETVQKWREYRRQCQRSLTEDPPPATDLFCNRTFDEYACWPDGEPGSFVNVSCPWYLPWASSVPQGHVYRFCTAEGLWLQKDNSSLPWRDLSECEESKRGERSSPEEQLLFLYIIYTVGYALSFSALVIASAILLGFRHLHCTRNYIHLNLFASFILRALSVFIKDAALKWMYSTAAQQHQWDGLLSYQDSLSCRLVFLLMQYCVAANYYWLLVEGVYLYTLLAFSVLSEQWIFRLYVSIGWGVPLLFVVPWGIVKYLYEDEGCWTRNSNMNYWLIIRLPILFAIGVNFLIFVRVICIVVSKLKANLMCKTDIKCRLAKSTLTLIPLLGTHEVIFAFVMDAHARGTLRFIKLFTELSFTSFQGLMVAILYCFVNNEVQLEFRKSWERWRLEHLHIQRDSSMKPLKCPTSSLSSGATAGSSMYTATCQASCS | -1.3 ΔpKi
5 | glucagon-like peptide 1 receptor (GLP-1R), wild-type, P43220 G377A (protein) RPQGATVSLWETVQKWREYRRQCQRSLTEDPPPATDLFCNRTFDEYACWPDGEPGSFVNVSCPWYLPWASSVPQGHVYRFCTAEGLWLQKDNSSLPWRDLSECEESKRGERSSPEEQLLFLYIIYTVGYALSFSALVIASAILLGFRHLHCTRNYIHLNLFASFILRALSVFIKDAALKWMYSTAAQQHQWDGLLSYQDSLSCRLVFLLMQYCVAANYYWLLVEGVYLYTLLAFSVLSEQWIFRLYVSIGWGVPLLFVVPWGIVKYLYEDEGCWTRNSNMNYWLIIRLPILFAIGVNFLIFVRVICIVVSKLKANLMCKTDIKCRLAKSTLTLIPLLGTHEVIFAFVMDEHARATLRFIKLFTELSFTSFQGLMVAILYCFVNNEVQLEFRKSWERWRLEHLHIQRDSSMKPLKCPTSSLSSGATAGSSMYTATCQASCS | -0.4 ΔpKi
